Data reported in publication PMC7687889.

Target: human EphA2 ligand-binding domain (LBD) (human) (UniProt P29317)
Assay: SPR

Chain of EBV gHgL (Epstein-Barr virus glycoprotein H / glycoprotein L complex) (P03231 18-679): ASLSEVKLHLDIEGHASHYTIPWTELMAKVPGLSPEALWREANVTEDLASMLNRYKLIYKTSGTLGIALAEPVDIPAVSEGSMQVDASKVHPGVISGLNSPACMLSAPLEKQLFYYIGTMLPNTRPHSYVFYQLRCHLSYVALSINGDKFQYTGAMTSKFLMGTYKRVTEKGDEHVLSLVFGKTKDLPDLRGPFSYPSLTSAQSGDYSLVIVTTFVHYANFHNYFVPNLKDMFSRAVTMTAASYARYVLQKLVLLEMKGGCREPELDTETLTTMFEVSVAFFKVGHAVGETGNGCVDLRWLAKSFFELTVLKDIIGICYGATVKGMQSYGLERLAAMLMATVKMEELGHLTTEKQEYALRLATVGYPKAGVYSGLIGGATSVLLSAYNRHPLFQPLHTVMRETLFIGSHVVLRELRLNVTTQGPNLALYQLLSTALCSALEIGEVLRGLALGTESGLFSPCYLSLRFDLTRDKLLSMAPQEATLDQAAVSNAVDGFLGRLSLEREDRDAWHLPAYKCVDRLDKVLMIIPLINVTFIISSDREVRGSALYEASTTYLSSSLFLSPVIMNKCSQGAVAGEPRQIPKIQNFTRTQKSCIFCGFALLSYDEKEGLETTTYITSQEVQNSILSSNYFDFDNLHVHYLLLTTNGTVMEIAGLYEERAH
Chain of EBV gHgL (Epstein-Barr virus glycoprotein H / glycoprotein L complex) (P03212 24-137): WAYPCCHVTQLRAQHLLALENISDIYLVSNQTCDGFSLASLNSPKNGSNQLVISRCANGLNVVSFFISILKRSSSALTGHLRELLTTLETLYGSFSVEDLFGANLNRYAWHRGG
Chain of KSHV gHgL (Kaposi sarcoma-associated herpesvirus glycoprotein H / glycoprotein L complex) (F5HAK9 22-698): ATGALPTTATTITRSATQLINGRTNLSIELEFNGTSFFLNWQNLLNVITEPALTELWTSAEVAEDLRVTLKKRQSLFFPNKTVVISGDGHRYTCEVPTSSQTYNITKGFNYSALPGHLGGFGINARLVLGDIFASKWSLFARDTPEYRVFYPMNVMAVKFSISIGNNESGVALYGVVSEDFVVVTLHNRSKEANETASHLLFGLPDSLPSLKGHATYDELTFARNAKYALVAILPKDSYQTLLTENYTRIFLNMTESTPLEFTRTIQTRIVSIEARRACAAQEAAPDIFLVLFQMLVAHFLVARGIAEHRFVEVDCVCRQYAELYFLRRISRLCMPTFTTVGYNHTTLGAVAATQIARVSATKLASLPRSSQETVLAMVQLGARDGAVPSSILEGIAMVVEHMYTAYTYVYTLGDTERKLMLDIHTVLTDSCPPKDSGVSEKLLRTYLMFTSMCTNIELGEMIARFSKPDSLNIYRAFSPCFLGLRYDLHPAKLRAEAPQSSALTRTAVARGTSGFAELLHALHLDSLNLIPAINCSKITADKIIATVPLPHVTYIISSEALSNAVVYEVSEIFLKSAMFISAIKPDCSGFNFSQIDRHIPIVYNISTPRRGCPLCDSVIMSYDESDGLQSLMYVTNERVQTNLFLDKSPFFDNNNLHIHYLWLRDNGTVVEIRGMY
Chain of KSHV gHgL (Kaposi sarcoma-associated herpesvirus glycoprotein H / glycoprotein L complex) (F5HDB7 21-167): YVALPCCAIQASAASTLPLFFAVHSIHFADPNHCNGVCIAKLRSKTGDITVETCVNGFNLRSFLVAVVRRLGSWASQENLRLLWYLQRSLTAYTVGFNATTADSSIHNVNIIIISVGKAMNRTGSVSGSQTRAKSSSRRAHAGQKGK

| Substance | Kd |
| --- | --- |
| EBV gHgL (Epstein-Barr virus glycoprotein H / glycoprotein L complex) (from UniProt P03231;P03212) | 4120 nM |
| KSHV gHgL (Kaposi sarcoma-associated herpesvirus glycoprotein H / glycoprotein L complex) (from UniProt F5HAK9;F5HDB7) | 17.5 nM |
